Test: label from the status in PepcDB records
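Note: failed if final PepcDB status was selected cloned or expressed and not failed if soluble or beyond.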

Sequence: MIERLELRNLTVFTGLTLELSPKINVIIGENGTGKTHLLKAAYGLCAGAPLFKNKPDTGDDELEAALTAKLLRLFMPLDDKLGKMHRQGATDQAYLSAKFAGGQKIAATFFNNSKALAVQDRANYEKYQAEAVFIPTKEVLSFMKGFNSLYEKYGLSFDQTYQDICLLLDLPEVRPETLHEKSKWAMAEIEGICGGRFVFYGGGKVTFKTENAEYSANSMAEGFRKAGILSRLLETGAIQPGVSGPLFWDEPESNLNPKLMKLLVQILLELSRNGQQIILATHDYVLLKWFDLLMDKGKDDHVRFHSLYRDADTSEIKVASTEDYLKITPNPIDEAFGFLINQEIENDMGGLGK
- protein production: failed

Sequence: MIEYRIFRFPMYPLLARFFSSHQQALGVLFALLSAIGFSAKAIFIKLAYVEPVDAVTLLALRMVFSVPFFVFAMLHGRAQATPMARHDWLAVLLLGLVGYYLASFLDFLGLQYISAGLERMILFLYPTMVVLISALVFRAAIGRRVWFALLLSYVGIGLVFVHDFHITSDGLFMGSSLVFASALAYAIYLIGAGHTIARIGSMRFTAYAMTVACLACIAQFLLTHPLDDLQQSTRVYGLSIGMALFSTVMPAFALAAAMRRIGSMQTSMIGALGPVATIYLAYVFLAEQLSLTQLAGSGLVLIGVMMISMRKME
- protein production: failed

Sequence: MIFMGNKVKYNLKNVHAAKLTETDSDGTTTFSYAEPKAIPGAVSISLDAEGETSPFYADGIVYFRSVTNNGYSGDLEIALIPEWFRTEILQEKLDAKGVLVENSGVGESVKFALLFEFDGDVNAIRHVLYNCSASRPSIESETKEDTIEPGTETLSITADPRSDGLVKARTGDTTDSGTYTNWYKAVYTPTEEEPEETSGEDESV
- protein production: failed

Sequence: MIFYKSKRLAFFLTSDIVLILLSVYLAFSLRFSGDIPSIFYHGMMVSAIILLVLKLSFLFVFRIYKVAWRFFSLNEARKIFIALLLAEFCFFLIFYFFSDFFNPFPRSAIVIDFVLSYMFIGTLRISKRMLVDFKPSRMKEEETPCIVVGATSKALHLLKGAKEGSLGLFPVGVVDARKELIGTYCDKFIVEEKEKIKSYVEQGVKTAIIALRLEQEELKKLFEELVAYGICDVKIFSFTRNEARDISIEDLLARKPKDLDDSAVAAFLKDKVVLVSGAGGTIGSELCKQCIKFGAKHLIMVDHSEYNLYKINDDLNLYKEKITPILLSILDKQSLDEVLKTYKPELILHAAAYKHVPLCEQNPHSAVINNILGTKILCDSAKENKVAKFVMISTDKAVRPTNIMGCTKRVCELYTLSMSDENFEVACVRFGNVLGSSGSVIPKFKAQIANNEPLTLTHPDIVRYFMLVAEAVQLVLQAGAIAKGGELFVLDMGKPVKIIDLAKKMLLLSNRNDLEIKITGLRKGEKLYEELLIDENDAKTQYESIFVAKNEKVDLDWLNKEIENLQICEDISEALLKIVPEFKHNKEGV
- protein production: failed

Sequence: MIGALRHACPGSRAAAFVLSGLQTMTNEVKSAVRVIQILEYFDTVRREAGVLEISRALGFPASSTAGILRSLQRLSYLVQDEQRLYRPTPRVTLLGSWIDPLLAHDGPLMALMSHLSKATGETIILALQVDAGARYIHIIPSTQRVRLHVNVGDVRPLLTSGTGRLFVSTMEPDQVRRAVFRHNALRGANEPEINLSTVTRDATQIRKNGYATSLDRLVPGVGIIAALLPEREGTRPMAVAVGGPSVTIRARTAELASLLREGIGQYLPHLGNAGDQS
- protein production: failed

Sequence: MIGELVKDKILIKNIEDARLIYKMGYYGKPIGISKPKSAEEINSELILSLIEGVYLVKKGKLEIVSNGERLDFERLYQIGVTQIPRFRILYSVYEDLREKGYVVRSGIKYGADFAVYTIGPGIEHAPYLVIALDENSQISSNEILGFGRVSHSTRKELILGIVNLTNGKIRYIMFKWLKM
- protein production: not failed

Sequence: MIGHRISRLGSTIVKQLAREGYLATYGTKNLHRSYGHYLQSLPVVPRQARTSQEAWFLKSHKFCTSSTTSSENGDEETEKITIIFVDKDGEEIPVKVPIGMSVLEAAHENDIDLEGACEASLACSTCHVIVMDTEYYNKLEEPTDEENDMLDLAFGLTETSRLGCQVIARPELDGVRLAIPSATRNFAVDGFVPKPH
- protein production: failed

Sequence: MIGLSFVSLLTIVCAALGCAVLTWALMPLLIRYALARPNARSSHKVPTPQGAGIAVVAATLAVTALAVGPTTPAFLGLIPLFVAAIVIGIVGAVDDIRPIPVLPRFALQALCVGAVVLTLPSDQQIIPALPLWLERAALLIGGLWFINLVNFMDGLDWMTVAEGLPVTAALLVFGLLGALTQSPMLLAAALGGALLGFAPFNRPGAARVFLGDVGSLPIGLLLGWCLLQLALQGHVAATLLLPLYYLADSTLTLLRRMMRREPFWLAHRSHFYQRATDNGFSVREVVGLVCLTNLALAALAGVSIALNSVAADGLLLAVGAAIVAALLMRFADRKA
- protein production: failed

Sequence: MIGQAILLGCIAFIAQSEYALGTSLLSRPIVTGLFVGIVLGDVKTGVIMGATLELAFIGSFSVGASIPPDVVTGGILGTAFAITAGAGTETALVLGLPIATLTLILKNIYLGLLIPIMSQKADQYAEEGAYKGVERMHLLAGFGLSFMLALIVTISFAVGSNTIKGLLDLIPEFIQHGLSVATGIIPALGFAMLARLLINKQVAPYFFLGFVLMAYFKLPVTGVAILGAITAVIVVNIMNYAKGKNETIQTTSGEVIDDDEDF
- protein production: failed

Sequence: MIGVITSLTGGAILRNPAVLLIPLIYLVGRRSRDLTYLLFVMYTIITFQFVEVKELISYETIKTTLMAIIPSLLALKESIEGKKLQKTDLYYLPLFFLGVLRDYFYYLGLIIAGLLHIENFHSILIPAAVFSLIISPALVGELIELPGEYISIIMAGSLLVIYLVFQPTRR
- protein production: failed

Sequence: MIHADPESAMPAAYAATPFAQRLGLTLPVVQAPMAGVSTPALAAAVSNAGGLGSLGLGAMNADAARQAIALTREQTTRPFNVNLFCHAPATADAAREARWLQYLAPRFAEFDAQPPATLREVYTSFLADDDMFDMLLAERPEVVSLHFGLPPASRIAALRQAGIYLMATATDMREAARIAAAGVDAIVAQGIEAGGHRGMFDPAARDEQLGTLALTRLLARRFDAPVIAAGGIMDGAGVAAVLALGAQAAQLGTAFISCPESSADMPHRHALLDQAEVATTLTRAISGRPARSIANRYTELGAAADCPPTPDYPIAYDAGKALHAAARARGDASYAAQWAGQAAALSRGVPAATLMRQLQAELNDCIGRLAR
- protein production: failed

Sequence: MIHDDQKPSSSLDLQEIRIQIDSVDQQIQELINRRATLAEAVAKAKFASEENPLFYRPEREAQVLRKVMERNQGPLSDVTMARLFREIMSACLALEAPQSIAFLGPEGTFTQSAALKHFGKDAVVRPLPTIDEVFREVEAGSAHYGVVPVENSSEGVVNHTLDCFRTSQLNVIGEVELRIHHQFLVSHNTRKDSIKQIYAHQQALAQCRQWLDTHYPGVERVALSSNAEAARRIRNEWHSAAIASDIAASMYDLEIFHSNIEDNPENTTRFLVIGREKIPQSGNDKTSLLISAHDRAGALLEILAPFAKHKISLTSIETRPALPEKWAYVFFIDLEGHIEQENVAAAIDDIRPLVKELRILGSYPAAVL
- protein production: failed

Sequence: MIIEYLQLVGLGLVTMLPVANPLTSTTLLLALGSGFTRDERNRQIGRATVYVAAIILASFYAGNAIISSFGISIPGLRIAGGLIVAYIGFTMLFPATSQNEAQAQVEMAPDDPHIQVPGAAHTGPRPRDISFVPLALPGTAGPGTIALIISSASTLHSHGGITLIHHFAVITVTLLLALLFWACLRSAERVMRMLGQSGIDAISRVMGFLLICMGVQFIIDGVFELIRHPPGA
- protein production: failed

Sequence: MIIIELNKRQEHIIQIVKDHGPITGESIAAQLGLTRATLRPDLAILTMAGYLEARPRVGYFYTGKTGGQLLSEAVKKIKVQDYQSRPVVIDKNVSVYDAICTMFLEDVGTLFVVDQSTLLVGVVSRKDLLRASLGKQDLTSLPVNIIMTRMPNIAMCRREDSLYDIAMELIERQIDAMPVVKDTKQGLEVVGRITKTNITRAFVNLVNNE
- protein production: failed

Sequence: MIILDNLEQFKVVYRDGRKWNRCVEAIENIGNLRDGIMYSIGDSLVYMIEDGIAKNTETFVGNRRYFDIHYYLEGRETVEVASKSELESVQAYSDETDREHLNGNGQKHQLCEGQVAVFDNTKAYKFHGDNRVRKVVLKVTIEDGYFLNK
- protein production: failed

Sequence: MIILGQALYQKDQFAEAAKCLEQAASKLLDTSPTEVEEVDLLIVASQWAGVSNIRQGKTSEGITHLERVANMKEPDDPKSKAHYLDALVLYSSAIFNEGRREEAAKYLRRVVAYDPSFSELLKQCEEDDTIPTSSSSNSTSKTS
- protein production: failed

Sequence: MIINDPVKITGIVDILIIIIFTSLGFRGFLRGFIKEISGFAEVFVLILLLYKKTEEFRRFVEPIIELSYIQALLVFFLLIHIGFLILQSLIESIISQLKLLFFNRILGLVLGLLEAFGIIAIVVYIIHSQQIFKPEYFLKESKLLDYLNPGINYLFKISKTK
- protein production: failed

Sequence: MIIPGIAAAETCPDGYKNVSVCKAEKMVEKEDVFLLDVRTPAEFNKTHIEGTILIPVKNVPAQDPVELSSDELLEVRINEVPADEKILVYCKSGARSAAACSLLVSNGYRKVYNMRGGIDCWLARGCTVDVNADKADELLGTGEFFLLDVRTPAEFNAGYIEGAILIPLKNVPKEDPVELPPEKLLAQCLCEIPENKPILVYCKSGTRSDAARDLLVDSGYRHVYNLEGGILTWKAEGYPTVCPAI
- protein production: failed

Sequence: MIIRIKHYGEVKIEDSKNLLLNLIENRIGIDNICNGKGTCGKCKVRFRQGVPEATSADLRYLSVEELEEGVRLACQVKPQKGMEIDVTLSNSFDRKLEHHHHHH
- protein production: not failed

Sequence: MIISELVHNNLRGGNKTHNLELKLPVKPVIGGSSSEDDAIVADASSLMHGDNPGLEFRHKELEAPLIPQRTHSLLYQPQKKVKPEATDSYVSQLTAEADDHLQSPNRDSLYTSMPNLRDSPYPESSPDMAEDLSPSRRSENEDIYYKSMPNLGAGRHLHMCYQISRGNSDGYIIPINKEGCIPEGDVREGQMQLVTSL
- protein production: failed

Sequence: MIITIARQCGCMGDQIGKALAEKYFIPFYDKDAVCRLAKEKGLYEKYPYFYGEMPLDMLLYADTMAGDDTTDNGKTPRKAMADIIGNENCVVVGRCGNNAFRHREDVISVFLTGNKEKRVELIEKKHNVSPKKAAKIVEDTDLRRRSYHNYYTGEEWGNAEYYDICIDVSKVGEDGALRLIEAYINETGVL
- protein production: failed

Sequence: MIIVMSRRAAEADIAGVVAFIRSRGLREHISHGDERTVIGAIGDDRVLSVREVQTLPEVEKAVRILDTWKTVSRENRAEDSRVAAKGVAFGGGETVRIAAEPSVWSNADAVFLDPFFTSANLYDTLSADEGRGRCRRLAEQAASAHGAGKPVLVRVRNVRHVEAALNAGADILYLGGGLMSDLAVLNEAGSLNIPLVLCKDKHHSAEDWLNAAEYVVSRGNRHLILGESGVLGHTKGHPYRLDVESIVKVRQISHLPVIANITGLWSRDMPQEILYGLAKAAGACGIVGTCFEKAGG
- protein production: failed

Sequence: MIIVTGATGKLGRRIVERLLERVPADRVGVSVRDPRKAQDLADRGVRVRQGSFDDPASLVHAFEGAEQLLLVSLDRTGQECVSGHRAAIDAAVKAGVGRILYTSQMGAAHDSRFQACRDHAQTEDLLRATGLPWTALRNGFYASSALQFLESARHTGDIALPADGPVAWTGHDDLAEATAAILAEEHRFEGPTPPLTGPAALDFDTVAEIASQTTGRPFTRTVVPDDAFREQVLAHGAPAPIGNLMLSIFAAARNGEFTAVDSTLAELIGREPATFRTQLEHAWAE
- protein production: failed

Sequence: MIKEQSFEWLLEGCHRIADVAVAYYPNYAYACSAVKALRRSIAEHACLLKDLTDQGYTARTAHLTPVQIGILLSYWGMPDHVKDMTVKNPYLLVSKKYAK
- protein production: failed

Sequence: MIKFMSIASGSSGNCYYLSNGNQALLIDAGIPLRSISKALKDHQLPIEGNVVGVLVTHDHADHIRTIGCLGEKFHLPVFATERVHNGINSSRYMDHLPLLSRRNILQEETFRLAGFDITAFPIPHDATENVGYHITAPGFSFTLCTDVGHITDTISHYASKADYLVMEANYDCEMLLSGPYPEFLKERVSGPNGHLSNQETGDFLARTFHPGMKHVWLCHLSKDNNHPDLCWKSIEYRLFSEGIRVGKDMELTVLKRTSPSSLYTLLEDLEHHHHHH
- protein production: not failed

Reference: a protein production outcome set (Wang et al. 2014)
